Measurements published in PMC8260207.

Target: Purified human ribosomes from HEK293 cells (human)

cGAMP synthesis by cGAS (thin-layer chromatography) with saturating DNA, fold stimulation by pre-incubation with purified ribosomes, cGAS at 150–300 nM: 8 fold
Substance: purified, recombinant human cGAS (from UniProt Q8N884 1-522) (natural protein)
